The source of these data is patent US5854216A, “Marker for growth hormone-releasing factor receptors” (Universite de Montreal, priority 1996, dated 1998).

Square brackets hold non-standard residues; d marks the D form. Peptide text beside a SMILES is read from it. Phe(4-NO2) = N[C@@H](Cc1ccc([N+](=O)[O-])cc1)C(=O)O

The target of one test is T1, GRF receptors ([^125 I-Tyr^10 ]hGRF(1-44)NH2 binding sites in rat adenopituitary) (Rattus norvegicus, UniProt Q02644).
T1 construct: from tissue; host or cells: rat anterior pituitary homogenate
T1 sequence (Q02644 23-423 isoform Q02644-2 limits assumed): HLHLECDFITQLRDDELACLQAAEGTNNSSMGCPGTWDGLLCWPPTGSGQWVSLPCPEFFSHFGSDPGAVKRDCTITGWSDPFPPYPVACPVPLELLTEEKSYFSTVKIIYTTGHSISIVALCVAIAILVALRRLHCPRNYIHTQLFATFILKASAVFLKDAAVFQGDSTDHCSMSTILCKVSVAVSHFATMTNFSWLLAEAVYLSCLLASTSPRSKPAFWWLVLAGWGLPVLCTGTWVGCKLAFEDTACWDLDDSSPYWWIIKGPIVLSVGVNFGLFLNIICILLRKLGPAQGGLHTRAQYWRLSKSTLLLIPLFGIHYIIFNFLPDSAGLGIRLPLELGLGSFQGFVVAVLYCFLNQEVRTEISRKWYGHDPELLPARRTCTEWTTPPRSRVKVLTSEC
Kind of test: Competitive binding assay with [^125 I-Tyr^10 ]hGRF(1-44)NH2 on anterior pituitary homogenates. Here is the method:
The binding of [^125 I-Tyr^10 ]hGRF(1-44)NH2 was performed on anterior pituitary homogenates as previously described (Gaudreau P. et al., J. Biol. Chem., 1992, 35:1864-1869). Briefly, anterior pituitaries (pit.) were dissected out, rinsed and homogenized for 8 sec with a Micro Ultrasonic Cell Disrupter™, in ice-cold 50 mM Tris-HCl buffer, pH 7.4, containing 5 mM MgCl2 and 5 mM EDTA (1 pit./0.5 ml). These homogenates were used immediately. Competition studies were performed using 35-50 pM [^125 I-Tyr^10 ]hGRF(1-44)NH2 as radio-ligand,50 μl of homogenate (70 to 75 μg of protein), and increasing concentrations of Nε-CF-[Lys^31 ]hGRF or other GRF analogues (0-1000 nM) or with 2.4 μM rGRF(1-29)NH2 for determination of non-specific binding, in a total volume of 300 μl of Tris-HCl buffer, pH 7.4, containing 5 mM EDTA, 5 mM MgCl2 and 0.42% BSA. Incubations were carried out at 23° C. for 60 min and stopped by centrifugation (12,000 g, 5 min, at 4° C.). The radioactivity content in the pellet was measured by gamma counting. The affinity of hGRF(1-29)NH2 was tested in each experiment to assess the validity of the assay and determine the relative affinity of the analogues. […] The Hill values indicate that all these peptides bind to the high and low affinity GRF binding sites found in the anterior pituitary.
As to `CC[C@H](C)[C@H](NC(=O)[C@H](C)NC(=O)[C@H](CC(=O)O)NC(=O)[C@H](C)NC(=O)[C@@H](N)Cc1ccc(O)cc1)C(=O)N[C@@H](Cc1ccccc1)C(=O)N[C@H](C(=O)N[C@@H](CC(N)=O)C(=O)N[C@@H](Cc1ccc([N+](=O)[O-])cc1)C(=O)N[C@@H](Cc1ccc(O)cc1)C(=O)N[C@@H](CCCNC(=N)N)C(=O)N[C@@H](CCCCN)C(=O)N[C@H](C(=O)N[C@@H](CC(C)C)C(=O)NCC(=O)N[C@@H](CCC(N)=O)C(=O)N[C@@H](CC(C)C)C(=O)N[C@@H](CO)C(=O)N[C@@H](C)C(=O)N[C@@H](CCCNC(=N)N)C(=O)N[C@@H](CCCCN)C(=O)N[C@@H](CC(C)C)C(=O)N[C@@H](CC(C)C)C(=O)N[C@@H](CCC(N)=O)C(=O)N[C@@H](CC(=O)O)C(=O)N[C@H](C(=O)N[C@@H](CCSC)C(=O)N[C@@H](CO)C(=O)N[C@@H](CCCNC(=N)N)C(N)=O)[C@@H](C)CC)C(C)C)[C@@H](C)O` [npa^9, [4'-nitro-phenylanalylalanine^9]hGRF(1-29)NH2] (H-YADAIFTN[Phe(4-NO2)]YRKVLGQLSARKLLQDIMSR-NH2), the “IC50 (in words)” value is “low nanomolar range”.

A further test concerns the target T2, GRF receptor of rat adenopituitary (rat, UniProt Q02644-2).
T2 sequence: T1 sequence (Q02644 23-423 isoform Q02644-2 limits assumed)
Kind of test: displacement of 125I-Tyr10 hGRF(1-44)NH2 from rat anterior pituitary homogenate.
As for “4'-nitro-phenylanalylalanine^9 !hGRF(1-29)NH2 (from UniProt P01286) (peptide)”, the IC50 was found to be 9.97 nM and the Relative affinity (%) against hGRF(1-29)NH2 came out at 27%.
The molecule “npa^3 analogue of hGRF(1-29)NH2 (Table 7, number 5) (from UniProt P01286) (peptide)” displayed an IC50 of 197 nM and a Relative affinity (%) against hGRF(1-29)NH2 of 1.3%.
Turning to “D-Ala^2,D-Tyr^10 ! hGRF(1-29)NH2 (from UniProt P01286) (peptide)”, the 50% inhibitory concentration (IC50) amounted to 9.65 nM and the Relative affinity (%) against hGRF(1-29)NH2 was 25%.
Taken in the same sequence, the figures for “bpa^0 analogue of hGRF(1-29)NH2 (Table 7, number 13) (from UniProt P01286) (peptide)” were 34.5 nM and 8%.
In the case of “octanoyl^30,Cys^31 ! hGRF(1-29)NH2 (from UniProt P01286) (peptide)”, the Relative affinity (%) against hGRF(1-29)NH2 was 35%.
Regarding “npa^7 analogue of hGRF(1-29)NH2 (Table 7, number 9) (from UniProt P01286) (peptide)”, the IC50 is 33.7 nM and the Relative affinity (%) against hGRF(1-29)NH2 came out at 7.9%.
“D-Ala^2, D-Tyr^10,D-Ala^15,Lys^22 ! hGRF(1-29)NH2 (from UniProt P01286) (peptide)” showed a Relative affinity (%) against hGRF(1-29)NH2 of 104%.
“npa^8 analogue of hGRF(1-29)NH2 (Table 7, number 10) (from UniProt P01286) (peptide)”: the IC50 turned out to be 54.1 nM and the Relative affinity (%) against hGRF(1-29)NH2 was 5%.
Molecule “4'-nitro-phenylalanine^10 !hGRF(1-29)NH2 (from UniProt P01286) (peptide)” came in with an IC50 of 4.43 nM and a Relative affinity (%) against hGRF(1-29)NH2 of 60%.
“npa^2 analogue of hGRF(1-29)NH2 (Table 7, number 4) (from UniProt P01286) (peptide)”: the IC50 was 751 nM and the Relative affinity (%) against hGRF(1-29)NH2 was 0.3%.
“D-Ala^2, Ala^8, D-Tyr^10, Ala^15, D-Lys^21, Lys^22 analogue of hGRF(1-29)NH2 (Table 11, No. 14) (from UniProt P01286) (peptide)”: the IC50 turned out to be 0.48 nM and the Relative affinity (%) against hGRF(1-29)NH2 stood at 500%.
In turn, “D-Ala^2,D-Tyr^10,Lys^22 ! hGRF(1-29)NH2 (from UniProt P01286) (peptide)” showed a Relative affinity (%) against hGRF(1-29)NH2 of 490%.
Take “npa^1 analogue of hGRF(1-29)NH2 (Table 7, number 3) (from UniProt P01286) (peptide)”: the IC50 was determined as 376 nM and the Relative affinity (%) against hGRF(1-29)NH2 was 7%.
For “npa^6 analogue of hGRF(1-29)NH2 (Table 7, number 8) (from UniProt P01286) (peptide)”, in that order: 30.9 nM and 8.6%.
For the molecule “npa0 analogue of hGRF(1-29)NH2 (Table 7, number 2) (from UniProt P01286) (peptide)”, the Relative affinity (%) against hGRF(1-29)NH2 is 14%.
For “npa^4 analogue of hGRF(1-29)NH2 (Table 7, number 6) (from UniProt P01286) (peptide)”, the IC50 was determined as 8.65 nM and the Relative affinity (%) against hGRF(1-29)NH2 was 31%.
The molecule “4'-benzoyl-phenylalyl^10 !hGRF(1-29)NH2 (from UniProt P01286) (peptide)” came in with an IC50 of 5.77 nM and a Relative affinity (%) against hGRF(1-29)NH2 of 45%.
“bpa^4 analogue of hGRF(1-29)NH2 (Table 7, number 14) (from UniProt P01286) (peptide)” came in with a concentration for half-maximal inhibition (IC50) of 64.7 nM and a Relative affinity (%) against hGRF(1-29)NH2 of 4%.
For “bpa^9 analogue of hGRF(1-29)NH2 (Table 7, number 15) (from UniProt P01286) (peptide)”, in that order: 28.4 nM and 9%.
For “His^1, bpa^9, Nle^27 analogue of hGRF(1-29)NH2 (Table 7, number 17) (from UniProt P01286) (peptide)”, in that order: 4.4 nM and 61%.
Taken in the same sequence, the figures for “D-Ala^2,D-Tyr^10, D-Lys^21 ! hGRF(1-29)NH2 (from UniProt P01286) (peptide)” were 11.6 nM and 21%.
As for “npa^5 analogue of hGRF(1-29)NH2 (Table 7, number 7) (from UniProt P01286) (peptide)”, the IC50 was determined as 27.7 nM and the Relative affinity (%) against hGRF(1-29)NH2 stood at 10%.
Take “D-Ala^2, Ala^8, Ala^15, Lys^22 analogue of hGRF(1-29)NH2 (Table 11, No. 13) (from UniProt P01286) (peptide)”: the Relative affinity (%) against hGRF(1-29)NH2 was found to be 1330%.

Broadly, the IC50 is the midpoint of a concentration-inhibition curve. Read a low IC50 as greater potency.
